Data taken from patent publication EP1262190A1, “RFRP-CONTAINING PROLACTIN SECRETION REGULATORY AGENT” (Takeda Chemical Industries, Ltd., priority 2000, dated 2001).

Target: human 0T7T022 receptor (human)
Assay: cell-based or functional assay

Row | ED50, inhibition of the cAMP level increased by forskolin [nM] | Substance
1 | 21 | hRFRP-1-37 (peptide having the 56 (Ser) to 92 (Phe) amino acid sequence in SEQ ID NO:1)
2 | 30 | rRFRP-1-37 (peptide having the 58 (Ser) to 94 (Phe) amino acid sequence in SEQ ID NO:50)
